Reference: patent US20240343803A1 (SHANDONG SIMCERE BIOPHARMACEUTICAL, published 2024)

Target: T1, cynomolgus monkey TIGIT ECD-mFc (extracellular domain of cynomolgus monkey TIGIT and mouse IgG2a Fc fragment) (cynomolgus monkey)
T1 construct: entry includes the signal peptide, limits not readable here
Test: ELISA
Procedure: After discarding the coating solution, the plate was added with 5% skim milk powder (Sangon Biotech, CAT #A600669-0250)-PBS, 250 μL/well, and incubated at 37° C. for 2-4 hours. […] The enzyme-labeled plate was then washed with 0.05% Tween 20-PBS for 3 times on the Microplate Washer, added with tested antibodies diluted to 13 nM with 1% BSA (diluted by 3-fold serial dilution for 12 concentration points), 50 μL/well, and incubated at 37° C. for 1.5-2 hours. The plate was washed with 0.05% Tween 20-PBS for 3 times on the Microplate Washer, then added with HRP enzyme-labeled antibodies (Merck, CAT #AP113P) diluted with 1% BSA (Sangon Biotech, CAT #A500023-0100)-PBS at a dilution ratio of 1:5000, 50 μL/well, and incubated at 37° C. for 1 hour. After washing 3 times with 0.05% Tween 20-PBS on the Microplate Washer, the plate was added with TMB chromogenic solution (KPL, CAT #52-00-03), 50 μL/well, and incubated at room temperature for 7-10 minutes. 1M HCL, 50 μL/well, was then added into the plate to terminate the reaction, and the OD450 nm was read by a microplate reader (Biotek, Powerwave HT). […] (b) The binding activity of anti-TIGIT chimeric antibodies to CHO-K1 human TIGIT (cells with high, medium and low expression levels) and CHO-KI cynomolgus monkey TIGIT detected by FACS.

EC50: 0.0158 nM
B1: RG6058-hIgG1 (antibody, V domains shown)
VH: EVQLQQSGPGLVKPSQTLSLTCAISGDSVSSNSAAWNWIRQSPSRGLEWLGKTYYRFKWYSDYAVSVKGRITINPDTSKNQFSLQLNSVTPEDTAVFYCTRESTTYDLLAGPFDYWGQGTLVTVSS
VL: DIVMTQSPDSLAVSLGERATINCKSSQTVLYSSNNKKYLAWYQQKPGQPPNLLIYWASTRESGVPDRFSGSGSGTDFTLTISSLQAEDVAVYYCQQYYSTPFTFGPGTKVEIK
notes: human IgG1 format by its name; also called Roche RG6058; control antibody RG6058
